From PMC10654211, “GTPBP8 is required for mitoribosomal biogenesis and mitochondrial translation” (Cellular and Molecular Life Sciences: CMLS, 2023) come the findings set out here.

In general, Km refers to the concentration of substrate that gives half-maximal velocity. By kcat is commonly meant the number of substrate molecules converted per active site and unit of time at saturation.

Substrate in this series: Nc1nc2c(ncn2[C@@H]2O[C@H](COP(=O)(O)OP(=O)(O)OP(=O)(O)O)[C@@H](O)[C@H]2O)c(=O)[nH]1
Briefly: purified protein. As to conditions: 12 μM GTPBP8, 0-3 mM GTP, kit reaction buffer, 25 °C, intrinsic GTPase activity. It counts as biochemical, Homo sapiens.

B1: GTPBP8 (GTP-binding protein 8) (Homo sapiens) (protein)
chain: MAAPGLRLGAGRLFEMPAVLERLSRYNSTSQAFAEVLRLPKQQLRKLLYPLQEVERFLAPYGRQDLHLRIFDPSPEDIARADNIFTATERNRIDYVSSAVRIDHAPDLPRPEVCFIGRSNVGKSSLIKALFSLAPEVEVRVSKKPGHTKKMNFFKVGKHFTVVDMPGYGFRAPEDFVDMVETYLKERRNLKRTFLLVDSVVGIQKTDNIAIEMCEEFALPYVIVLTKIDKSSKGHLLKQVLQIQKFVNMKTQGCFPQLFPVSAVTFSGIHLLRCFIASVTGSLD
notes: His-tagged, purified; full-length human CDS in pENTR221, GTPBP8 cloned into pHAT (and pGAT2); full-length 284 residues
For B1, the Km worked out at 200 ± 40 µM and the kcat is 0.000132 ± 5.5e-05 s⁻¹.
